Measured values taken from the supplement of paper PMC10567573.

B1: SEC22B (parent)
chain: FPKKLAFAYLEDLHSEFDEQHGKK

Variants of: B1
Assay: protein stability index of a GFP-peptide fusion (GPS, HEK-293T) (PSI 1-6); higher = more stable
Details: c terminus: a fixed tail appended
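Further: lentivirally expressed fusions sorted by FACS into six bins by GFP to DsRed ratio, PSI derived from sequencing read proportions per bin multiplied by bin number.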

Point of comparison: FPKKLAFAYLEDLHSEFDRQHGKK [E19R], protein stability index 1.63. Against it:
- FPKKLAFAYLEDLHSEFDEQHPKK [G22P] — higher, 2.48
- FPKKLAFAYLEDLHSEFDEQHMKK [G22M] — higher, 2.62
- FPKKLAFAYLEDLHSEFDEQHAKK [G22A] — higher, 2.54
- FPKKLAFAYLEDLHSEFDEQHWKK [G22W] — higher, 2.23
- FPKKLAFAYLEDLHSEFDEQHRKK [G22R] — higher, 2.51
- FPKKLAFAYLEDLHSEFDEQHQKK [G22Q] — higher, 2.36
- FPKKLAFAYLEDLHSEFDEQHVKK [G22V] — higher, 2.12
- FPKKLAFAYLEDLHSEFDEQHSKK [G22S] — higher, 2.6
- FPKKLAFAYLEDLHSEFDEQHFKK [G22F] — higher, 1.97
- FPKKLAFAYLEDLHSEFDEQHTKK [G22T] — higher, 2.43
- FPKKLAFAYLEDLHSEFDEQHKKK [G22K] — higher, 2.23
- FPKKLAFAYLEDLHSEFDEQHEKK [G22E] — higher, 2.56
- FPKKLAFAYLEDLHSEFDEQHCKK [G22C] — higher, 2.35
- FPKKLAFAYLEDLHSEFDEQHIKK [G22I] — higher, 2.25
- FPKKLAFAYLEDLHSEFDEQHNKK [G22N] — higher, 2.71
- FPKKLAFAYLEDLHSEFDEQHDKK [G22D] — higher, 2.15
- FPKKLAFAYLEDLHSEFDEQHYKK [G22Y] — higher, 1.98
- FPKKLAFAYLEDLHSEFDEQHLKK [G22L] — higher, 2.34
- FPKKLAFAYLEDLHSEFDEQHHKK [G22H] — higher, 3
- FPKKLAFAYLEDLHSEFDEWHGKK [Q20W] — higher, 2.46
- FPKKLAFAYLEDLHSEFDEDHGKK [Q20D] — higher, 2.93
- FPKKLAFAYLEDLHSEFDESHGKK [Q20S] — higher, 2.58
- FPKKLAFAYLEDLHSEFDEMHGKK [Q20M] — higher, 2.03
- FPKKLAFAYLEDLHSEFDEYHGKK [Q20Y] — higher, 2.47
- FPKKLAFAYLEDLHSEFDEGHGKK [Q20G] — higher, 2.32
- FPKKLAFAYLEDLHSEFDEAHGKK [Q20A] — higher, 2.23
- FPKKLAFAYLEDLHSEFDEKHGKK [Q20K] — higher, 2.64
- FPKKLAFAYLEDLHSEFDERHGKK [Q20R] — higher, 2.67
- FPKKLAFAYLEDLHSEFDEIHGKK [Q20I] — higher, 2.03
- FPKKLAFAYLEDLHSEFDECHGKK [Q20C] — higher, 2.09
- FPKKLAFAYLEDLHSEFDEEHGKK [Q20E] — higher, 2.52
- FPKKLAFAYLEDLHSEFDEVHGKK [Q20V] — higher, 2.84
- FPKKLAFAYLEDLHSEFDEHHGKK [Q20H] — higher, 2.47
- FPKKLAFAYLEDLHSEFDEFHGKK [Q20F] — higher, 2.49
- FPKKLAFAYLEDLHSEFDELHGKK [Q20L] — higher, 2.54
- FPKKLAFAYLEDLHSEFDENHGKK [Q20N] — higher, 2.55
- FPKKLAFAYLEDLHSEFDETHGKK [Q20T] — higher, 2.44
- FPKKLAFAYLEDLHSEFDEPHGKK [Q20P] — higher, 2.4
- FPKKLAFAYLEDLHSEFWEQHGKK [D18W] — higher, 2.17
- FPKKLAFAYLEDLHSEFVEQHGKK [D18V] — higher, 2.45
- FPKKLAFAYLEDLHSEFYEQHGKK [D18Y] — lower, 1.5
- FPKKLAFAYLEDLHSEFDEQHGRK [K23R] — higher, 2.34
- FPKKLAFAYLEDLHSEFDEQHGIK [K23I] — higher, 2.66
- FPKKLAFAYLEDLHSEFDEQHGEK [K23E] — higher, 2.81
- FPKKLAFAYLEDLHSEFDEQHGPK [K23P] — higher, 2.33
- FPKKLAFAYLEDLHSEFDEQHGHK [K23H] — higher, 2.63
- FPKKLAFAYLEDLHSEFDEQHGGK [K23G] — higher, 2.27
- FPKKLAFAYLEDLHSEFDEQHGSK [K23S] — higher, 2.7
- FPKKLAFAYLEDLHSEFDEQHGQK [K23Q] — higher, 2.81
- FPKKLAFAYLEDLHSEFDEQHGMK [K23M] — higher, 2.25
- FPKKLAFAYLEDLHSEFDEQHGLK [K23L] — higher, 2.53
- FPKKLAFAYLEDLHSEFDEQHGAK [K23A] — higher, 2.36
- FPKKLAFAYLEDLHSEFDEQHGFK [K23F] — higher, 2.07
- FPKKLAFAYLEDLHSEFDEQHGDK [K23D] — higher, 3.12
- FPKKLAFAYLEDLHSEFDEQHGNK [K23N] — higher, 2.66
- FPKKLAFAYLEDLHSEFDEQHGCK [K23C] — higher, 2.3
- FPKKLAFAYLEDLHSEFDYQHGKK [E19Y] — higher, 2.39
- FPKKLAFAYLEDLHSEFDSQHGKK [E19S] — higher, 2.33
- FPKKLAFAYLEDLHSEFDIQHGKK [E19I] — higher, 2.37
- FPKKLAFAYLEDLHSEFDHQHGKK [E19H] — higher, 2.05
- FPKKLAFAYLEDLHSEFDDQHGKK [E19D] — higher, 2.92
- FPKKLAFAYLEDLHSEFDQQHGKK [E19Q] — higher, 2.33
- FPKKLAFAYLEDLHSEFDMQHGKK [E19M] — higher, 2.53
- FPKKLAFAYLEDLHSEFDNQHGKK [E19N] — higher, 2.86
- FPKKLAFAYLEDLHSEFDAQHGKK [E19A] — higher, 2.47
- FPKKLAFAYLEDLHSEFDVQHGKK [E19V] — higher, 2.32
- FPKKLAFAYLEDLHSEFDCQHGKK [E19C] — higher, 2.15
- FPKKLAFAYLEDLHSEFDPQHGKK [E19P] — higher, 2.79
- FPKKLAFAYLEDLHSEFDWQHGKK [E19W] — higher, 2.12
- FPKKLAFAYLEDLHSEFDGQHGKK [E19G] — higher, 2.36
- FPKKLAFAYLEDLHSEFDFQHGKK [E19F] — higher, 2.51
- FPKKLAFAYLEDLHSEFDTQHGKK [E19T] — higher, 2.42
- FPKKLAFAYLEDLHSEFDLQHGKK [E19L] — higher, 2.6
- FPKKLAFAYLEDLHSEFDKQHGKK [E19K] — higher, 2.37
- FPKKLAFAYLEDLHSEFDEQNGKK [H21N] — higher, 3.07
- FPKKLAFAYLEDLHSEFDEQGGKK [H21G] — higher, 2.5
- FPKKLAFAYLEDLHSEFDEQPGKK [H21P] — higher, 2.41
- FPKKLAFAYLEDLHSEFDEQEGKK [H21E] — higher, 2.85
- FPKKLAFAYLEDLHSEFDEQMGKK [H21M] — higher, 2.69
- FPKKLAFAYLEDLHSEFDEQQGKK [H21Q] — higher, 2.66
- FPKKLAFAYLEDLHSEFDEQWGKK [H21W] — higher, 2.34
- FPKKLAFAYLEDLHSEFDEQVGKK [H21V] — higher, 2.28
- FPKKLAFAYLEDLHSEFDEQTGKK [H21T] — higher, 2.69
- FPKKLAFAYLEDLHSEFDEQIGKK [H21I] — higher, 1.98
- FPKKLAFAYLEDLHSEFDEQAGKK [H21A] — higher, 2.93
- FPKKLAFAYLEDLHSEFDEQSGKK [H21S] — higher, 2.6
- FPKKLAFAYLEDLHSEFDEQFGKK [H21F] — higher, 2.46
- FPKKLAFAYLEDLHSEFDEQCGKK [H21C] — higher, 2.28
- FPKKLAFAYLEDLHSEFDEQRGKK [H21R] — higher, 2.37
- FPKKLAFAYLEDLHSEFDEQDGKK [H21D] — higher, 3.02
- FPKKLAFAYLEDLHSEFDEQLGKK [H21L] — higher, 2.25
- FPKKLAFAYLEDLHSEFDEQKGKK [H21K] — higher, 2.55
- FPKKLAFAYLEDLHSEFDEQYGKK [H21Y] — higher, 2.37
